# Test results taken from US11136597B2, “Compositions for enhancing targeted gene editing and methods of use thereof” (Yale University, priority 2016, dated 2021).
# B1: SCF: recombinant murine stem cell factor, the ligand for c-Kit (protein)
# chain: MKEICGNPVTDNVKDITKLVANLPNDYMITLNYVAGMDVLPSHCWLRDMVIQLSLSLTTLLDKFSNISEGLSNYSIIDKLGKIVDDLVLCMEENAPKNIKESPKRPETRSFTPEEFFSIFNRSIDAFKDFMVASDTSDCVLSSTLGPEKDSRVSVTKPFMLPPVA
# Experiments:
# F508del CFTR [1] = assay: MQAE assay measuring chloride flux in CFBE cells; format: cell-based; conditions: NPs containing γtcPNAs with 4 γ residues in the Hoogsteen domain, versus unmodified PNA
# Excerpt: (§1) FIG. 7A is a bar graph showing the results of a MQAE (N-(Ethoxycarbonylmethyl)-6-Methoxyquinolinium Bromide) assay (delta(AFU)/(delta(Time (sec)) measuring chloride flux for negative control CFBE cells; CFBE cells treated with blank nanoparticles, PNA2: lys-lys-lys-TJTJJTTT-OOO-TTTCCTCTATGGGTAAG-lys-lys-lys (SEQ ID NO:93)-loaded nanoparticles, PNA2 (SEQ ID NO:93)-loaded nanoparticles with an MPG peptide, γPNA2 lys-lys-lys-TJTJJTTT-OOO-TTTCCTCTATGGGTAAG-lys-lys-lys (SEQ ID NO:69)-loaded nanoparticles; and untreated positive control wildtype 16HBE14o-cells. FIG. 7B is a dot pot showing nasal potential difference (NPD) (pretreatment, after treatment with γPNA2 (SEQ ID NO:69)-loaded nanoparticles, and after treatment with blank nanoparticles) measured using a non-invasive assay used to detect chloride potential differences in vivo.
# (§2) A substantial increase in gene editing in F508del CFTR using γtcPNAs with just partial γ substitution and only in the Hoogsteen domain of CF PNA2.
# F508del CFTR [2] = assay: Nasal potential difference (NPD) in CF mice after intranasal delivery; format: in vivo, mouse; conditions: intranasal delivery of NPs
# Excerpt: as §1, §2
# [3] = test system: CD117+ cells from β-globin/GFP transgenic mice; assay: Ex vivo gene editing in pre-sorted CD117+ cells with or without SCF or c-Kit pathway kinase inhibitors; format: cell-based, mouse
# Description: For CD117+ cell experiments, Iscove's Modified Dulbecco's Media (IMDM) media containing insulin (10 ng/ml), FCS (10%) and erythropoietin (1 U/ml) was used to culture CD117+ cells after isolation using magnetic separation. Where indicated, 3 μg/ml of SCF (Recombinant murine SCF, catalog #250-03, PeproTech, Rocky Hill, N.J.;) was added prior to nanoparticle treatment. 2 mg/ml of NPs were used to treat 50,000-100,000 CD117+ cells in triplicate for 48 hrs in the above media, followed by flow cytometry analyses as above. Inhibitors were used at concentrations of 200 nM (dasatinib), 1.0 μM (MEK162) and 3.0 μM (BKM120). Dasatanib was obtained from Cayman Chemical (Ann Arbor, Mich.; item #11498) and dissolved according to manufacturer's protocol. MEK162 and BKM120 were obtained from Dr. Harriet Kluger, Yale University.
# BD Bioscience kit catalog #558451 (BDImag™ Hematopoietic Progenitor Stem Cell Enrichment Set—DM) was used to isolate CD117 cells. Enrichment for CD117 was confirmed by flow cytometry. CD117+ enriched cells were labeled with CD117-APC (BD Pharmingen™ catalog #558451) antibody. Cells were co-labelled with control IgG antibody (BD Pharmingen™ catalog #555746) for gating purposes. To quantify GFP expression, after CD117 co-labelling, flow cytometry was performed using FACScaliburS by resuspending cells in PBS/1% FBS where green fluorescent cells are measured in the Fl1 channel and APC stained cells are in the Fl4 channel Antibodies for other markers were Ter119 (BD Pharmingen™ catalog #561033) and CD45 APC (BD Pharmingen™ catalog #561018).
# To explore the mechanism of the increased gene editing in CD117+ cells, the requirement of c-Kit-dependent signaling for elevated gene correction or whether CD117 simply serves as a marker for the increased susceptibility to gene editing was distinguished. To do this, γtcPNA4/donor DNA NP-mediated gene editing was assayed in pre-sorted CD117+ cells in the presence or absence of selected kinase inhibitors (FIG. 2D). Dasatinib, which inhibits the c-Kit kinase in addition to the BCR/Abl and Src kinases, reduced the gene editing from 7% to 2.0%.
# [4] = test system: DNA repair genes (Rad51, BRCA2); assay: Gene expression profiling of SCF-treated versus untreated CD117+ cells; format: cell-based, mouse
# [5] = test system: homology-dependent repair (HDR); assay: Luciferase reporter gene assay for homology-dependent repair (HDR) in CD117+ cells; format: cell-based, mouse
# Description: An inactivating I-Sce1 site was cloned 56 amino acids into the firefly luciferase open reading frame under the control of a CMV promoter. The reporter construct also contains a promoterless luciferase gene used as a template for homologous recombination. A double-strand break in the luciferase reporter is created by in vitro digestion with the I-Sce I restriction enzyme (NEB #R0694L). Plasmid DNA was digested with I-Sce 1 for 1 hour at 37° C. at a ratio of 10 units enzyme to 1 μg DNA and then the enzyme was inactivated at 65° C. for 20 minutes. The linearization of the plasmid was confirmed for each digestion via gel electrophoresis and the linear plasmid was purified using the Qiagen Qiaquick spin columns. After separation CD117+ and CD117-cells from bone marrow of β-globin/GFP transgenic mice, cells were transfected using the Lonza 2b Nucleofector Device. 5×10^5 cells were transfected with 1 μg of either the luciferase reporter vector or a positive control firefly luciferase expression vector, along with 50 ng of a renilla luciferase expression plasmid as a transfection efficiency control. All transfections were performed in triplicate. After transfection the cells were plated at a density of 5×10^5 cells/ml in 12-well plates. After 24 hours incubation post transfection, luciferase activity was measured using the Promega Dual Luciferase Assay Kit. In each sample firefly luciferase activity was normalized to the renilla luciferase transfection control. Reporter reactivation was calculated as a ratio of normalized firefly luciferase activity in the cells transfected with the reporter plasmid to the positive control.
# To test whether the above increases in DNA repair gene expression could be correlated with functional differences in DNA repair, a luciferase-based assay was used to quantify repair of DNA double-strand breaks (DSBs) by HDR. In this assay, repair of a DSB in a reporter plasmid via intramolecular homologous recombination creates (“reactivates”) a functional luciferase gene (FIG. 2H), and so the assay provides a measure of HDR capacity (FIG. 2J).
# [6] = test system: human β-globin gene with the thalassemia-associated IVS2-654 mutation; assay: Disease phenotype in IVS2-654 β-thalassemic mice (blood smears, CBC, reticulocytes, spleen); format: in vivo, mouse; conditions: day 36 after last treatment, four treatments at two-day intervals, SCF i.p., NPs i.v.
# Description: The IVS2-654 β-thalassemic mice were also obtained from Ryszard Kole, University of North Carolina (Svasti, et al., Proc Natl Acad Sci USA, 106:1205-1210 (2009)). For treatment of the mice, where indicated SCF (15.6 ug per mouse, Recombinant Mouse SCF, carrier-free, R&D catalog #455-mc-050/CF) was injected intraperitoneally 3 hrs prior to treatment with 4 mg of NPs in 150 μl PBS delivered via retro-orbital intravenous injection. Each mouse received 4 treatments given at 48 hr intervals. Mice were anesthetized with isoflurane followed by retro-orbital bleeding (˜100 μL) using ethylenediaminetetraacetic acid-treated glass capillary tubes. The blood was evacuated into tubes with 5 μL of 0.5 M EDTA acid in heparinized coated tubes. Complete blood counts were performed using a Hemavet 950FS (Drew Scientific, Oxford, Conn.) according to the manufacturer's protocol. Slides containing blood smears were stained with Wright and Giemsa stain for microscopy. Methylene blue staining was used for reticulocyte counts. Spleen images and weights were taken after selected mice were sacrificed on day 36 after the last treatment. Harvested spleens were fixed in 10% neutral buffered formalin and processed by Yale Pathology Tissue Services for H&E, CD61 and E cadherin staining. […]
Molecule,increase in activity for CFTR gene correction (MQAE assay) (F508del CFTR [1]),activity in vivo by NPD measurements (F508del CFTR [2]),change of gene editing frequency on SCF treatment ([3]; CD117+ cells),"gene editing frequency in CD117+ cells treated with SCF ([3]; γtcPNA4/donor DNA NPs, 3 μg/ml SCF added prior to nanoparticle treatment)",DNA repair gene expression [4],HDR repair activity (luciferase reactivation) in CD117+ cells ([5]; CD117+ cells),fold increase in HDR ([5]; CD117+ cells treated with SCF),RBC morphology in blood smears [6]
"lys-lys-lys-TJTJJTTT-OOO-TTTCCTCTATGGGTAAG-lys-lys-lys (lysine caps, linker, γ residues, in nanoparticles, as printed in the source, key not given here) [γPNA2, CF PNA2 with 4 γ residues in the Hoogsteen domain, delivered in nanoparticles]",more than 50%,substantial increase in activity,,,,,,
B1,,,almost doubles the frequency,~15%,additional up-regulation of numerous DNA repair genes,further boosted,2 fold,not
